These results are taken from the RNAGym collection of RNA variant scans (doi:10.7554/elife.80360).

B1: Hammerhead Ribozyme (parent)
chain: ACCGGAUGUGCUUUCCGGUCUGAUGAGUCCGUGAGGACGAAACAG

The variants in the series derive from B1. The series can be described thus: self-cleavage, relative activity (ratio to wild type); higher = more cleavage; co-transcriptional.
Regarding ACCGGUUGUGCUUUCCGGUCUGAUGAGUCCAUGAGGACGAAACAG [A6U G31A], the self-cleavage amounted to 0.748. For ACCGGUUGUGCUUUCCGGUCUGAUGAGUCCCUGAGGACGAAACAG [A6U G31C] the value was 0.704; for ACCGGAAGUGCUUUCCGGUCUGCUGAGUCCGUGAGGACGAAACAG [U7A A23C], 0.434; for ACCGGAAGUGCUUUCCGGUCUGUUGAGUCCGUGAGGACGAAACAG [U7A A23U], 0.322. The same measure for ACCGGAAGUGCUUUCCGGUCUGGUGAGUCCGUGAGGACGAAACAG [U7A A23G]: 0.308; for ACCGGUUGUGCUUGCCGGUCUGAUGAGUCCGUGAGGACGAAACAG [A6U U14G]: 0.624; for ACCGGUUGUGCUUACCGGUCUGAUGAGUCCGUGAGGACGAAACAG [A6U U14A]: 1.06.

As to ACCGGUUGUGCUUCCCGGUCUGAUGAGUCCGUGAGGACGAAACAG [A6U U14C], the self-cleavage is 1.07. In the case of ACCGGAAGUGCUUUCCGGUCUGAUGAGUCCGUGAGGGCGAAACAG [U7A A37G], the self-cleavage was determined as 0.907.

Turning to ACCGGAAGUGCUUUCCGGUCUGAUGAGUCCGUGAGGUCGAAACAG [U7A A37U], the self-cleavage worked out at 0.497. For ACCGGAAGUGCUUUCCGGUCUGAUGAGUCCGUGAGGCCGAAACAG [U7A A37C] the value was 1.12; for ACCGGUUGGGCUUUCCGGUCUGAUGAGUCCGUGAGGACGAAACAG [A6U U9G], 0.641; for ACCGGUUGAGCUUUCCGGUCUGAUGAGUCCGUGAGGACGAAACAG [A6U U9A], 0.617. For ACCGGUUGCGCUUUCCGGUCUGAUGAGUCCGUGAGGACGAAACAG [A6U U9C], the self-cleavage is 0.654. For ACCGGUUGUGCUUUCCCGUCUGAUGAGUCCGUGAGGACGAAACAG [A6U G17C] the value was 0.354. The same measure for ACCGGUUGUGCUUUCCAGUCUGAUGAGUCCGUGAGGACGAAACAG [A6U G17A]: 0.401. For ACCGGUUGUGCUUUCCUGUCUGAUGAGUCCGUGAGGACGAAACAG [A6U G17U], the self-cleavage is 0.465. For ACCGGAAGUGCUUUCCGGUCUGAUGAGUCCGUGAGGACGAAACAG [U7A] the value was 1.28. For ACCGGAAGUGCUUUCCGGUCUGAUGAGUCCGUGGGGACGAAACAG [U7A A34G] the value was 1.07; for ACCGGAAGUGCUUUCCGGUCUGAUGAGUCCGUGCGGACGAAACAG [U7A A34C], 1.78. For ACCGGAAGUGCUUUCCGGUCUGAUGAGUCCGUGUGGACGAAACAG [U7A A34U] the value was 1.22; for ACCGGAAGUGCUUUCCGGUCUGAUGAGUUCGUGAGGACGAAACAG [U7A C29U], 0.823.

With ACCGGAAGUGCUUUCCGGUCUGAUGAGUACGUGAGGACGAAACAG [U7A C29A], the self-cleavage was determined as 0.511. The same measure for ACCGGAAGUGCUUUCCGGUCUGAUGAGUGCGUGAGGACGAAACAG [U7A C29G]: 0.663; for ACCGGUUGUGCUGUCCGGUCUGAUGAGUCCGUGAGGACGAAACAG [A6U U13G]: 0.616. The same measure for ACCGGUUGUGCUAUCCGGUCUGAUGAGUCCGUGAGGACGAAACAG [A6U U13A]: 0.747; for ACCGGUUGUGCUCUCCGGUCUGAUGAGUCCGUGAGGACGAAACAG [A6U U13C]: 1.02; for ACCGGUUGUGCUUUCCGGUCUUAUGAGUCCGUGAGGACGAAACAG [A6U G22U]: 0.397. Take ACCGGUUGUGCUUUCCGGUCUCAUGAGUCCGUGAGGACGAAACAG [A6U G22C]: the self-cleavage was found to be 0.354.

As for ACCGGUUGUGCUUUCCGGUCUAAUGAGUCCGUGAGGACGAAACAG [A6U G22A], the self-cleavage came to 0.289.

With ACCGGAAGUGCUUUCCGGUCUGAUGGGUCCGUGAGGACGAAACAG [U7A A26G], the self-cleavage came to 0.221. For ACCGGAAGUGCUUUCCGGUCUGAUGUGUCCGUGAGGACGAAACAG [U7A A26U] the value was 0.556; for ACCGGAAGUGCUUUCCGGUCUGAUGCGUCCGUGAGGACGAAACAG [U7A A26C], 0.311. The same measure for ACCGGUUUUGCUUUCCGGUCUGAUGAGUCCGUGAGGACGAAACAG [A6U G8U]: 0.489; for ACCGGUUCUGCUUUCCGGUCUGAUGAGUCCGUGAGGACGAAACAG [A6U G8C]: 0.769. For ACCGGUUAUGCUUUCCGGUCUGAUGAGUCCGUGAGGACGAAACAG [A6U G8A] the value was 0.807; for ACCGGAAGUGCUUUCGGGUCUGAUGAGUCCGUGAGGACGAAACAG [U7A C16G], 0.851; for ACCGGAAGUGCUUUCAGGUCUGAUGAGUCCGUGAGGACGAAACAG [U7A C16A], 1.29. For the variant ACCGGAAGUGCUUUCUGGUCUGAUGAGUCCGUGAGGACGAAACAG [U7A C16U], the self-cleavage is 1.17.

As for ACCGGAAGUGCUUUGCGGUCUGAUGAGUCCGUGAGGACGAAACAG [U7A C15G], the self-cleavage is 0.987. The same measure for ACCGGAAGUGCUUUUCGGUCUGAUGAGUCCGUGAGGACGAAACAG [U7A C15U]: 1.04. For ACCGGAAGUGCUUUACGGUCUGAUGAGUCCGUGAGGACGAAACAG [U7A C15A] the value was 0.852; for ACCGGUUGUGCUUUCCGGUCUGAUGAGUCCGUGAGGACCAAACAG [A6U G39C], 0.294; for ACCGGUUGUGCUUUCCGGUCUGAUGAGUCCGUGAGGACAAAACAG [A6U G39A], 0.281. The same measure for ACCGGUUGUGCUUUCCGGUCUGAUGAGUCCGUGAGGACUAAACAG [A6U G39U]: 0.364; for ACCGGUUGUGCUUUCCGGUCUGAUUAGUCCGUGAGGACGAAACAG [A6U G25U]: 0.355; for ACCGGUUGUGCUUUCCGGUCUGAUAAGUCCGUGAGGACGAAACAG [A6U G25A]: 0.308. Consider ACCGGUUGUGCUUUCCGGUCUGAUCAGUCCGUGAGGACGAAACAG [A6U G25C], for which the self-cleavage was 0.259.

As for ACCGGUUGUGCUUUCCGGUCUGAUGAGUCCGUGAGGACGAAACAC [A6U G45C], the self-cleavage stood at 0.39. For ACCGGUUGUGCUUUCCGGUCUGAUGAGUCCGUGAGGACGAAACAU [A6U G45U] the value was 0.468; for ACCGGUUGUGCUUUCCGGUCUGAUGAGUCCGUGAGGACGAAACAA [A6U G45A], 0.536.

Take ACCGGUGGUGCUUUCCGGUCUGAUGAGUCCGUGAGGACGAAACAG [A6U U7G]: the self-cleavage was 0.829. For ACCGGUAGUGCUUUCCGGUCUGAUGAGUCCGUGAGGACGAAACAG [A6U U7A] the value was 0.609. For ACCGGUCGUGCUUUCCGGUCUGAUGAGUCCGUGAGGACGAAACAG [A6U U7C] the value was 0.356; for ACCGGUUGUGCUUUCCGGUCAGAUGAGUCCGUGAGGACGAAACAG [A6U U21A], 0.517; for ACCGGUUGUGCUUUCCGGUCGGAUGAGUCCGUGAGGACGAAACAG [A6U U21G], 0.449. The same measure for ACCGGUUGUGCUUUCCGGUCCGAUGAGUCCGUGAGGACGAAACAG [A6U U21C]: 0.616.
